From patent publication US11596620B2, “Formulations with reduced oxidation” (Genentech, Inc., priority 2013, dated 2023)

Key:
Format in all cases: physicochemical, human
mAb1 [1] = assay: Light stress of mAb1 formulation (eight hours at 250 W/m^2), papain digest RP-HPLC; conditions: eight hours of light at 250 W/m^2
Method: L-tryptophan (L-Trp), an antioxidant used in protein formulations, has been recently shown to be photosensitive (Igarashi et al., Anal Sci 23(8):943-8 (2007)) and to have the ability to produce H2O2 upon light exposure. […] Control vials were wrapped in aluminum foil and treated similarly. After light exposure, solutions were prepared for analysis by reverse-phase HPLC. […] Following incubation, 900 μL of the solution was combined with 100 μL of 1 M dithiothreitol (DTT) and incubated for another thirty minutes at 37° C. Samples were then run on an Agilent, Inc. 1100/1200 HPLC system (Santa Clara, Calif.) equipped with UV detection at 280 nm in conjunction with a Varian, Inc. Pursuit 3 μm, 2 mm ID×250 mm diphenyl column (Palo Alto, Calif.). Mobile Phase A was 0.1% TFA in water. Mobile Phase B was 0.1% TFA in acetonitrile. The mobile phase gradient increased linearly from 34% B at 0 minutes to 43% B at 50.0 minutes, then to 95% B at 50.1 minutes. The gradient remained at 95% B until 60.1 minutes, and then decreased linearly from 95% B to 34% B between 60.1 and 60.2 minutes. The gradient remained at 34% B until the end of the cycle at 80.2 minutes. The column temperature was 65° C., total flow rate was 0.2 mL/min, and injection volume of each sample was 6 μL. Chromatograms were then integrated for quantification of oxidation.

mAb1 [2] = assay: mAb1 light stress study (16 hours at 250 W/m^2), RP-HPLC; conditions: 16 hours of light at 250 W/m^2
Method: The fragments were reduced with DTT, and then separated and identified via Liquid Chromatography-Mass Spectrometry (LC-MS). […] Comparison of area integrated under the oxidized and native peaks was used to quantify HC Fab and Fc oxidation. […] By using the papain digest RP-HPLC method in the present study it was possible to investigate Trp residue oxidation by quantifying HC Fab oxidation, and Met residue oxidation by quantifying HC Fc oxidation.
Antioxidants were added at 1 mM. Glass vials containing these formulations were exposed to 250 W/m^2 light in an Atlas SunTest CPS+ Xenon Test Instrument (Chicago, Ill.). Control vials were wrapped in aluminum foil and treated similarly. After light exposure, solutions were prepared for analysis by reverse-phase HPLC as described above.

mAb1 [3] = assay: mAb1 Fenton stress study (H2O2 + Fe), RP-HPLC; conditions: 10 ppm H2O2 and 0.2 mM Fe(III), 40° C. for 3 hours; no excipient
Method: Antioxidants were added at a final concentration of 1 mM. […] After incubation, each reaction was quenched by addition of 100 mM L-Met and then prepared for analysis by reverse-phase HPLC as described above.
The Fenton reaction, using a mixture of H2O2 and Fe ions, generates oxidation through a metal catalyzed, hydroxyl radical reaction (Prousek et al., Pure and Applied Chemistry 79(12):2325-2338 (2007)). This reaction generated Fab, i.e. tryptophan, oxidation in mAb1. The reaction was also carried out in the presence of select antioxidants that were useful against both AAPH and light induced oxidation as reported above. Data related to the antioxidant properties against Fenton mediated reaction were analyzed using the RP-HPLC assay as described above. The Fenton reaction used 10 ppm of H2O2 and 0.2 mM of Fe(III). The reaction was incubated at 40° C. for 3 hours, quenched with 100 mM L-Met and analyzed using RP-HPLC after papain digest. All samples were the average of three separate vials, and mAb1 control (Ref Mat) was one vial with five independent injections on the HPLC. […] In regards to protection against Fc oxidation, the tested excipients (other than salicylic acid) performed slightly better than L-Trp.

For drozitumab [mAb1], the “Fc oxidation, effect in words” value (mAb1 [1]; no excipient, or 10, 25, 50 and 100 mM L-Met added to 1 mM L-Trp) was “only a minor increase in Fc oxidation”, the Fab oxidation (mAb1 [1]; mAb1 5 mg/mL, no excipient or 1 mM L-Trp, reference material and foil control about 2%) was 4% and the “Fab oxidation increase over the control level (mAb1 Ref Mat)” value (mAb1 [2]; excipient 1 mM or none) was 3.5 fold. For the same substance, the “Increase in Fc oxidation over the control level” value (mAb1 [2]; no excipient) was 40% and the “Oxidation in the Fab region over the control” value (mAb1 [3]) was “about four times”.
